Test results published in patent US20260137795A1 (IMMUNOME, published 2026).

B1: UC961 (ATX-P-453) (antibody, V domains shown)
VH: QVQLQESGPGLVKPSQTLSLTCTVSGYAFTAYNIHWVRQAPGQGLEWMGSFDPYDGGSSYNQKFKDRLTISKDTSKNQVVLTMTNMDPVDTATYYCARGWYYFDYWGHGTLVTVSS
VL: DIVMTQTPLSLPVTPGEPASISCRASKSISKYLAWYQQKPGQAPRLLIYSGSTLQSGIPPRFSGSGYGTDFTLTINNIESEDAAYYFCQQHDESPYTFGEGTKVEIK
B2: ATX-P-885 (antibody, human IgG1, kappa, V domains shown)
VH: QVQLQQWGAGLLKPSETLSLTCAVYGGSFSGYYWSWIRQPPGKGLEWIGEINHSGSTNYNPSLKSRVTISVDTSKNQFSLKLSSVTAADTAVYYCAREGVYEDYWGQGTLVTVSS
VL: EIVLTQSPATLSLSPGERATLSCRASQSVSNYLAWYQQKPGQAPRLLIYDAYNRATGIPARFSGSGSGTDFTLTISSLEPEDFAVYYCQQRSNWPLTFGQGTRLEIKR
notes: human IgG1 heavy chain and kappa light chain
B3: 4A5 (antibody, V domains shown)
VH: EVKLVESGGGLVKPGGSLKLSCAASGFTFSSYAMSWVRQIPEKRLEWVASISRGGTTYYPDSVKGRFTISRDNVRNILYLQMSSLRSEDTAMYYCGRYDYDGYYAMDYWGQGTSVTVSS
VL: DIKMTQSPSSMYASLGERVTITCKASPDINSYLSWFQQKPGKSPKTLIYRANRLVDGVPSRFSGGGSGQDYSLTINSLEYEDMGIYYCLQYDEFPYTFGGGTKLEMK
B4: ATX-P-875 (antibody, human IgG1, kappa, V domains shown)
VH: not shown
VL: DIQMTQSPSSLSASVGDRVTITCRASQSISSYLNWYQQKPGKAPKLLIYAASSLQSGVPSRFSGSGSGTDFTLTISSLQPEDFATYYCQQYDNLPITFGQGTRLEIKR
notes: as for B2

Legend:
[1] = molecular target: T1, human ROR-1 endogenously expressed on JeKo-1 and MDA-MB-468 cells (human, UniProt Q01973 30-937); assay: cell-based or functional assay
[2] = molecular target: T2, Hu/Cy/Rh ROR1 - His (human/cynomolgus/rhesus, UniProt Q01973 30-403, limits assumed); assay: SPR, purified Hu/Cy/Rh ROR1-His
T2 construct: Purified His-tagged protein; also called HUMAN/CYNO/RHESUS ROR-1; not shown: His tag

[3] = molecular target: T3, Mouse ROR1 - His (mouse, UniProt Q9Z139 30-403, limits assumed); assay: SPR, purified Mouse ROR1-His
T3 construct: Purified His-tagged protein; not shown: His tag

[4] = molecular target: T1, human ROR-1 endogenously expressed on …; assay: flow cytometry on MDA-MB-468 cells, titrated antibody detected with a labeled secondary antibody, % Top MFI (cellular binning with Dy650-UC961)
[5] = molecular target: T1, human ROR-1 endogenously expressed on …; assay: flow cytometry on MDA-MB-468 cells, titrated antibody detected with a labeled secondary antibody, % Top MFI (cellular binning with 4A5-PE)
[6] = molecular target: T1, human ROR-1 endogenously expressed on …; assay: flow cytometry, titration on ROR-1 positive JeKo-1 cells, secondary antibody staining, Net MFI
[7] = molecular target: T1, human ROR-1 endogenously expressed on …; assay: cell binding saturation assay, flow cytometry on ROR-1 positive cells; one value told for the group
[8] = molecular target: T1, human ROR-1 endogenously expressed on …; assay: competition on MDA-MB-468 cells by flow cytometry: ATX-P-885 titrated first, then a saturating dose of labeled UC961 (Dy650-UC961) as the competed antibody
[9] = molecular target: T2, Hu/Cy/Rh ROR1 - His; assay: SPR (Carterra), head 'Kinetics (KD)' of the binning table; the sheet prints no unit, the four other KD values of the same head equal the KD (M) of Table 1 on Hu/Cy/Rh ROR1-His
[10] = molecular target: T1, human ROR-1 endogenously expressed on …; assay: competition on MDA-MB-468 cells by flow cytometry: ATX-P-875 titrated first, then a saturating dose of labeled 4A5 (4A5-PE) as the competed antibody

T3 sequence (Q9Z139 30-403 limits assumed): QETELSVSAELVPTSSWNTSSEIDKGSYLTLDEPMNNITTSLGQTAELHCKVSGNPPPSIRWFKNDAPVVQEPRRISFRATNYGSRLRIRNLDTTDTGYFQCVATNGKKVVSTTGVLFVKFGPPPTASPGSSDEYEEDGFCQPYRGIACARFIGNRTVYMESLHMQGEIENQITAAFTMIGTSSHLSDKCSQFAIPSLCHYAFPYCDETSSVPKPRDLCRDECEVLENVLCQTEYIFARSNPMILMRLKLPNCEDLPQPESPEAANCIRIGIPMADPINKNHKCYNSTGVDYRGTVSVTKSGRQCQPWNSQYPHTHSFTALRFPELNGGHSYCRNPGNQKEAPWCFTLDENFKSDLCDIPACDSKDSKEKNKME

Binder	Cellular Internalization, JeKo-1 (%) [1] [%]	Cellular Internalization, MDA-MB-468(%) [1] [%]	Kd [2] [nM]	koff [2] [s⁻¹]	kon [2] [M⁻¹ s⁻¹]	Kd [3] [nM]	koff [3] [s⁻¹]	kon [3] [M⁻¹ s⁻¹]	EC50 (read off the curve) [4] [nM]	EC50 (read off the curve) [5] [nM]	EC50 (read off the curve) [6] [nM]	saturating concentration [7] [nM]	IC50 (read off the curve) [8] [nM]	Kd [9] [nM]	IC50 (read off the curve) [10] [nM]
B1	75	80	4.69	0.00591	1.26e+06										
B2	75	89	10.9	0.00295	270000	45.3	0.00132	29200	~3	~2	~0.3	74	~3		
B3														2.81	
B4	75	89							~0.9	~0.6		74			~0.7
